Patent US12662542B2, “Agnostic anti-mullerian hormone receptor binding peptides” (OVARES D LLC, priority 2019, dated 2026)

Columns and labels:
[1] = system: ovarian follicles of C57BL/6J female mice; experiment: in vivo mouse ovary histology, follicle count and cell proliferation
Description: Knowledge of the developmental landmarks and the highly inbred conformity made C57BL/6J female mice a natural choice for this study. In this mouse strain, puberty is characterized by vaginal opening at approximately 25 days of life, estrus 3-4 days later, and subsequently by regular cycling every 5-6 days. Maturity is considered to be reached at 90 days of life (12 weeks).
Briefly, 24 C57BL mature female mice (18 weeks old) were allocated to four (4) experimental groups: baseline group (6 mice), AMHR2BP (SEQ ID NO: 1) group (6 mice), a recombinant rAMH group (6 mice), and control group (6 mice; 21 weeks of age, that received saline). The six mice in the baseline group were euthanized at the beginning of the experiment and comprised the baseline against which to compare the 2 experimental, and the control, groups. Mice in the AMHR2BP (SEQ ID NO: 1) group received AMHR2BP (SEQ ID NO: 1) at a daily dose of 50 μg/day (BP group); the rAMH group received recombinant AMH (rAMH) at a daily dose of 1.8 μg/day (to obtain 24.0 ng/ml serum level), and the control group received normal saline.
In order to accomplish this task, an osmotic pump was implanted intraperitoneally at time zero. […] The osmotic pump (ALZET Osmotic Pumps, model 1004, Cupertino, CA) administered AMHR2BP (SEQ ID NO: 1) and rAMH with a flow rate (QT) of 0.11 μl/h for 4 weeks, based on a mouse temperature of 36.9° C. and a tissue osmolality of 7.5 atm. The daily AMHR2BP (SEQ ID NO: 1) dose was chosen based on the results of Example 3 (above) and estimated in vitro to in vivo extrapolation (IVIVE), while the rAMH dose was determined as described in reference. Mice in the control group were treated with normal saline by using the same osmotic pump vehicle implanted intraperitoneally. All mice in the 2 experimental, and the control, groups were euthanized 3 weeks into the experiment. All mice underwent a blood draw just prior to euthanasia, and their ovaries were explanted for real-time RT-PCR and histological analyses.
After dissection, one ovary was stored in formalin and embedded in paraffin for immunohistochemical examination of follicular development and count with hematoxylin and eosin staining, while Ki67 slides were used for examination of cell proliferation. The other ovary was frozen for mRNA analysis (see below). Five μm-thick sections were serially cut and every 5th section analyzed for follicular counts. All ovarian cortex specimens where obtained from each group, and at least three sections were analyzed in each tissue specimen. The computerized program used for image analysis, CaseCenter™ by 3DHistech Pathology Information System™ (Version 2.3; Budapest, Hungary), allowed us to examine all the sections at the same time and to accurately count all the follicles in each section without redundancy. For follicle counting, the investigators were blinded to the treatment groups. One oocyte surrounded by a monolayer of flat, or cubic, granulosa cells enclosed by a basement membrane identified a primordial (PDF) and a primary follicle (PRF), respectively. Secondary follicles (SEF) were identified with one oocyte surrounded by multiple layers of cubic granulosa cells, and tertiary follicles (TEF) by fluid accumulation amid the granulosa cells.

luteinized GCs = settings: rAMH group; cited from earlier work
[2] = mouse ovarian cortex, 3 weeks, i.p. osmotic pump, AMHR2BP 50 μg/day, rAMH 1.8 μg/day

B1: rAMH: recombinant Anti-Müllerian hormone (rAMH), comparator in the mouse study (protein, UniProt P03971 452-560, looked up)
Muellerian-inhibiting factor: SAGATAADGPCALRELSVDLRAERSVLIPETYQANNCQGVCGWPQSDRNPRYGNHVVLLLKMQVRGAALARPPCCVPTAYAGKLLISLSEERISAHHVPNMVATECGCR
- PDFs compared with the control (placebo) group ([1]; control group 21 weeks' age): maintained
- PRFs compared with the control (placebo) group ([1]; control group 21 weeks' age): low
- SEFs compared with the control (placebo) group ([1]; control group 21 weeks' age): lower
- TEFs compared with the control (placebo) group ([1]; control group 21 weeks' age): lower
- Corp. Lutea/mm^3 Median [1, 2]: 7.5 /mm^3
- PDF/mm^3 Median [1, 2]: 1182 /mm^3
- PRF/mm^3 Median [1, 2]: 514 /mm^3
- SEF/mm^3 Median [1, 2]: 1144 /mm^3
- TEF/mm^3 Median [1, 2]: 871 /mm^3
- reduction of Ki67 and Caspase3 (luteinized GCs): greater than 30%
